# Results as given in patent publication US7750123B2.
# Substrate: S protein of GD03T on pseudotyped HIV virus (SARS-CoV (GD03T0013 isolate))
binder,measurement,value
"80R IgG1 (antibody, V domains shown) VH: EVQLVQSGGGVVQPGKSLRLSCAASGFAFSSYAMHWVRQAPGKGLEWVAVISYDGSNKYYADSVKGRFTISRDNSKNTLYLQMNSLRAEDTAVYYCARDRSYYLDYWGQGTLVTVSS VL: ETTLTQSPATLSLSPGERATLSCRASQSVRSNLAWYQQKPGQAPRPLIYDASTRATGIPDRFSGSGSGTDFTLTISRLEPEDFAVYYCQQRSNWPPTFGQGTKVEVK",inhibition of pseudoviral infection of ACE2-expressing 293T cells (luciferase),> 50 µg/mL
